Among the data in patent US20050282743A1, “Molecular interactions in cells” (Arbor Vita Corporation, priority 2001, published 2005) are Classification and Kd values, retold here.

Assay type in all cases: binding
Assay [1] has as its target T1, PDZ protein (GST-PDZ fusion) (Homo sapiens, UniProt Q6P0Q8).
T1 construct: made in house; host or cells: E. coli (DH5alpha, BL21 or JM109)
The assay is described as follows: G' assay (10 uM PL peptide), results of TABLE 7 and TABLE 12. The essentials: (§1)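 Biotinylated PL peptides at 10 uM (vs 20 uM in G^0 assay) bound to GST-PDZ fusions; PDZ protein at 5 ug/ml unless another concentration listed. Bound peptide read as A450 nm, classified 0–5 (0 = A450 0; 5 = A450 >4 repeated).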

Assay [2] concerns the target T2, PDZ protein (GST-PDZ fusion) (Homo sapiens, UniProt O14908).
T2 construct: made in house; host or cells: E. coli (DH5alpha, BL21 or JM109)
T2 sequence (O14908 1-333): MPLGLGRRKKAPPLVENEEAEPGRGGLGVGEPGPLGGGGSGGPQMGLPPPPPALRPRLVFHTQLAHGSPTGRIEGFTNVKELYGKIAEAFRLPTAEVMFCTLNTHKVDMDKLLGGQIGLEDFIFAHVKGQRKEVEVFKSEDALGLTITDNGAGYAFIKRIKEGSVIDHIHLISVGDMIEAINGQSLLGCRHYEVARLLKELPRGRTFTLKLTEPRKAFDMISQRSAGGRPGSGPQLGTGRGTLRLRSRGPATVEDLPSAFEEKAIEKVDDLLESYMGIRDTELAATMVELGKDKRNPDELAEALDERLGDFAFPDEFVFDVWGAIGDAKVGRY
The description is as above. As to conditions: PDZ TAX IP2, PDZ Domain 1. An outline of the steps: as §1

The target in assay [3] is PDZ-domain polypeptide (GST/PDZ fusion protein). Put plainly: Apparent affinity (Kd) by titration of PL peptide in the G assay. As to conditions: PDZ TAX IP2, PDZ Domain 1; read-out: Peptide Optimal Conc (Kd by titration of the PL peptide). As to the method:
The third column labeled “Peptide Optimal Concentration” in the tables is a number reflective of the binding interaction between the PL protein and PDZ protein. […] The column labeled “Protein Optimal Concentration” refers to the protein concentration used to assay PL interaction (in ug/ml); a ‘0’ is indicative of 5 ug/ml protein concentration; any other value represents the concentration (in ug/ml) used to determine the dissociation constant for a given interaction.
The “A” and “G” assays described supra can be used to determine the “apparent affinity” of binding of a PDZ ligand peptide to a PDZ-domain polypeptide. Apparent affinity is determined based on the concentration of one molecule required to saturate the binding of a second molecule (e.g., the binding of a ligand to a receptor). Two particularly useful approaches for quantitation of apparent affinity of PDZ-ligand binding are provided infra.
In cases where satisfying the above criteria proves difficult, an alternative approach (infra) can be used.
(1) A fixed concentration of a PDZ-domain polypeptide and increasing concentrations of a labeled PL peptide (labeled with, for example, biotin or fluorescein, see TABLE 9 for representative peptide amino acid sequences) are mixed together in solution and allowed to react. In certain assays, peptide concentrations are 0.1 uM, 1 uM, 10 uM, 100 uM, 1 mM. In other assays, appropriate reaction times can range from 10 minutes to 2 days at temperatures ranging from 4° C. to 37° C. In some instances, the identical reaction can also be carried out using a non-PDZ domain-containing protein as a control (e.g., if the PDZ-domain polypeptide is fusion protein, the fusion partner can be used).
(2) PDZ-ligand complexes can be separated from unbound labeled peptide using a variety of methods known in the art.
(3) The PDZ-ligand complex is detected based on presence of the label on the peptide ligand using a variety of methods and detectors known to one of skill in the art. For example, if the label is fluorescein and the separation is achieved using HPSEC, an in-line fluorescence detector can be used. The binding can also be detected as described supra for the G assay.

Ends that are not written are not given here. * marks the point of attachment. Biotin = O=C1N[C@H]2[C@H](CS[C@H]2CCCCC(=O)*)N1

T1 sequence (Q6P0Q8 whole entry, the tested form may be a part): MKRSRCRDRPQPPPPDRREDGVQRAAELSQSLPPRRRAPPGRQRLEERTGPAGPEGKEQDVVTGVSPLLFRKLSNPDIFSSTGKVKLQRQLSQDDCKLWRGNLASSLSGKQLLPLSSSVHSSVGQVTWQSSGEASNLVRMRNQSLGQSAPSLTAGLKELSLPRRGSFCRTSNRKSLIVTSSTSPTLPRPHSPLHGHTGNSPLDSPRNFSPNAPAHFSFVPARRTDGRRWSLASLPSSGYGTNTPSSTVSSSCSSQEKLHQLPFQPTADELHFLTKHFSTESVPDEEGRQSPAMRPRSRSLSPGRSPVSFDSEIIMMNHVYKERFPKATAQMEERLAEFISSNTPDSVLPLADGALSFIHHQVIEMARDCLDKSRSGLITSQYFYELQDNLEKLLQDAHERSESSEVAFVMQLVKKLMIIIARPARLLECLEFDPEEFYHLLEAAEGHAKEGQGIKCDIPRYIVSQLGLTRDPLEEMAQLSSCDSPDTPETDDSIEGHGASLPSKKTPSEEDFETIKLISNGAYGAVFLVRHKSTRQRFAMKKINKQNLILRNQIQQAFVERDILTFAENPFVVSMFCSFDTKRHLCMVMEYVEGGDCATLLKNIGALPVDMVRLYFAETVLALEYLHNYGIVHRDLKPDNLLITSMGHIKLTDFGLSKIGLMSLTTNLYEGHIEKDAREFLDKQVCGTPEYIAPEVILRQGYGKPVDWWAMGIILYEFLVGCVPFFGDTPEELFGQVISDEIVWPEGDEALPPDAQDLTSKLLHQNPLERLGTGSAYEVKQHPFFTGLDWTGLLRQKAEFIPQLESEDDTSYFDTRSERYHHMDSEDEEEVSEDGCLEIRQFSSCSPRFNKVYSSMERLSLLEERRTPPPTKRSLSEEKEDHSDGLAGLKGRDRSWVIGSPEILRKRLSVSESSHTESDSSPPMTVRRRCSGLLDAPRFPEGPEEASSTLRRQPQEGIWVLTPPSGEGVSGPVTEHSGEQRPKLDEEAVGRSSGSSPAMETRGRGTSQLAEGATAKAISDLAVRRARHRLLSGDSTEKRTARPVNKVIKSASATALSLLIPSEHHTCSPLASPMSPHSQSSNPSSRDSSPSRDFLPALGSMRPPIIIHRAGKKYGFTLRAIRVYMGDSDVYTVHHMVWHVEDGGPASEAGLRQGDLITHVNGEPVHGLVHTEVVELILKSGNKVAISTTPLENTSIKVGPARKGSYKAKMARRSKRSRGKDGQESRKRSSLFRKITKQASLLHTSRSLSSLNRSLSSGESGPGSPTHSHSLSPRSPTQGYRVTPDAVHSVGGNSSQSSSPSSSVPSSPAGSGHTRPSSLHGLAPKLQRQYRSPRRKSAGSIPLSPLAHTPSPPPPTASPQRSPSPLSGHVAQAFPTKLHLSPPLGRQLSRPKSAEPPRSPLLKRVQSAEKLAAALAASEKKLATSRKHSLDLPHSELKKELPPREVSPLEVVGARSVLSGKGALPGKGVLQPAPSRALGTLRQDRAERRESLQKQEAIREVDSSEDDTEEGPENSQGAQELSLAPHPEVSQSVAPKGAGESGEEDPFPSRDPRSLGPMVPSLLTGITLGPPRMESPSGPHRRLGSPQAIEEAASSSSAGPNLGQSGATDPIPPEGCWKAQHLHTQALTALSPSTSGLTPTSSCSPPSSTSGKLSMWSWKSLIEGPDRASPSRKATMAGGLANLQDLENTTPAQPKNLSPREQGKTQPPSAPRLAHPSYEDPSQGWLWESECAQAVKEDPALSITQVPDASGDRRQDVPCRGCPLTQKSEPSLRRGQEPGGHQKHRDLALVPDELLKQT

With AKT-1 (Biotin-VDSERRPHFPQFSYSASSTA), the Classification in assay [1] (PDZ KIAA0807(S), PDZ Domain 1) is recorded as 1 (A450 nm 0-1); in assay [1] (PDZ KIAA807, PDZ Domain not given), 1 (A450 nm 0-1); in assay [2], 4 (A450 nm 3-4). Besides, in assay [3], the Kd was found to be 2500 nM.
